Target: recombinant Tepary bean lectin (rTBL-1) (Phaseolus acutifolius (Tepary bean))
Experiment: SEC; ENrich SEC 650 column, calibrated with gel filtration standard; 200 uL of protein at 10 mg/mL; 20 mM MES pH 6.5, 100 mM NaCl

“recombinant Tepary bean lectin (rTBL-1) (natural protein)” gave a stoichiometry N of 4.

Source: paper PMC7226325
